Target: T1, 19-mer (SEQ ID NO:11) cleavage domain peptide
T1 chain: PRCGNPDVANYNFFPRKPK

B1: Proenzyme pro-MMP-9 (protein)
chain: APRQRQSTLVLFPGDLRTNLTDRQLAEEYLYRYGYTRVAEMRGESKSLGPALLLLQKQLSLPETGELDSATLKAMRTPRCGVPDLGRFQTFEGDLKWHHHNITYWIQNYSEDLPRAVIDDAFARAFALWSAVTPLTFTRVYSRDADIVIQFGVAEHGDGYPFDGKDGLLAHAFPPGPGIQGDAHFDDDELWSLGKGVVVPTRFGNADGAACHFPFIFEGRSYSACTTDGRSDGLPWCSTTANYDTDDRFGFCPSERLYTQDGNADGKPCQFPFIFQGQSYSACTTDGRSDGYRWCATTANYDRDKLFGFCPTRADSTVMGGNSAGELCVFPFTFLGKEYSTCTSEGRGDGRLWCATTSNFDSDKKWGFCPDQGYSLFLVAAHEFGHALGLDHSSVPEALMYPMYRFTEGPPLHKDDVNGIRHLYGPRPEPEPRPPTTTTPQPTAPPTVCPTGPPTVHPSERPTAGPTGPPSAGPTGPPTAGPSTATTVPLSPVDDACNVNIFDAIAEIGNQLYLFKDGKYWRFSEGRGSRPQGPFLIADKWPALPRKLDSVFEERLSKKLFFFSGRQVWVYTGASVLGPRRLDKLGLGADVAQVTGALRSGRGKMLLFSGRRLWRFDVKAQMVDPRSASEVDRMFPGVPLDTHDVFQYREKAYFCQDRFYWRVSSRSELNQVDQVGYVTYDILQCPED
anti-activation (splicing) assay: conversion of pro-MMP-9 by stromilysin, HPLC peak areas: Titrating the standard splicing reaction with the 19-mer (SEQ ID NO:11) peptide prevents the conversion of pro-MMP-9 into the prodomain and the active enzyme. Splicing can be inhibited in a dose dependent manner with micromolar 19-mer (SEQ ID NO:11) peptide.
